Data set [1] concerns the target T1, Mtr4 R1030A-archless R1030A (Saccharomyces cerevisiae) (UniProt P47047).
T1 sequence: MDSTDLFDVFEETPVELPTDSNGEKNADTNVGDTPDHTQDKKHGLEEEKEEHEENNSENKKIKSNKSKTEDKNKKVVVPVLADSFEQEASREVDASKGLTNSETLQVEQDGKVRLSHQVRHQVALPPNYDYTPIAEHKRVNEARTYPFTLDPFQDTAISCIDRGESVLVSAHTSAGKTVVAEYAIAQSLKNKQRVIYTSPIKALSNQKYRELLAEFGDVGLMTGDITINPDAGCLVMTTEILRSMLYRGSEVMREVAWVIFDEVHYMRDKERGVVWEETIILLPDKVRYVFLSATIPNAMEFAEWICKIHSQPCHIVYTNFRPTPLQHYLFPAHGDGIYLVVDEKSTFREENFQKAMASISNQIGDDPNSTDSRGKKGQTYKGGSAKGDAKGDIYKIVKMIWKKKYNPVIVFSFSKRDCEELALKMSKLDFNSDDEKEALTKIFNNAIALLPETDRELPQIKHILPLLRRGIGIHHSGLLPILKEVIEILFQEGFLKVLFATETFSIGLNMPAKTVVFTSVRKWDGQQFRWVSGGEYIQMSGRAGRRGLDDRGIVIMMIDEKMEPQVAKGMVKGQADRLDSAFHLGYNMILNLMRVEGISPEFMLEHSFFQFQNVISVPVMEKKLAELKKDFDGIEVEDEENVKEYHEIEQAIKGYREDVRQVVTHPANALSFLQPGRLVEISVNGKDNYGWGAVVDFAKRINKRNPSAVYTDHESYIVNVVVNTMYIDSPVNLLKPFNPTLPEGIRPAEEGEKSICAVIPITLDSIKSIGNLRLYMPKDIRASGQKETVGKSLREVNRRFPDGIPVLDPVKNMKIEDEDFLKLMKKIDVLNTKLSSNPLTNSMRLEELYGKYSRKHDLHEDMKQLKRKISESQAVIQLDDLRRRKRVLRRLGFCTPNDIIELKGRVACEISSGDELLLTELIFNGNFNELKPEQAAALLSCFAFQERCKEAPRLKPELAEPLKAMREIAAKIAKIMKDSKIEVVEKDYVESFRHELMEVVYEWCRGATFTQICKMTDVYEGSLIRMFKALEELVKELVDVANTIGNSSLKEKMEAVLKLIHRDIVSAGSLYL
The data set can be described thus: fluorescence anisotropy. The settings on record: FA: 40 mM MOPS pH 6.5, 100 mM NaCl, 0.5 mM MgCl2, 5% glycerol, 0.01% NP-40 substitute, 2 mM DTT, 60 nM RNA, 30 C; EMSA conditions not in material. In general terms: Fluorescence polarisation rises when a labelled molecule tumbles more slowly, as on binding a larger partner.

Data set [2] concerns the target T2, Mtr4 archless (Saccharomyces cerevisiae) (UniProt P47047).
T2 sequence: T1 sequence with A1030R
In words: fluorescence anisotropy. The settings on record: FA: 40 mM MOPS pH 6.5, 100 mM NaCl, 0.5 mM MgCl2, 5% glycerol, 0.01% NP-40 substitute, 2 mM DTT, 60 nM RNA, 30 C; EMSA conditions not in material.

In data set [3] the target is T3, Mtr4 E1033A-archless E1033A (Saccharomyces cerevisiae) (UniProt P47047).
T3 sequence: T1 sequence with A1030R, E1033A
In words: fluorescence anisotropy. The following applies: FA: 40 mM MOPS pH 6.5, 100 mM NaCl, 0.5 mM MgCl2, 5% glycerol, 0.01% NP-40 substitute, 2 mM DTT, 60 nM RNA, 30 C; EMSA conditions not in material.

Data set [4] has as its target T4, Mtr4 E1033A (Saccharomyces cerevisiae, UniProt P47047 1-1073, E1033A).
T4 sequence: T1 sequence with A1030R, E1033A
In words: fluorescence anisotropy; 0.5 mM MgCl2; FA: 40 mM MOPS pH 6.5, 100 mM NaCl, 0.5 mM MgCl2, 5% glycerol, 0.01% NP-40 substitute, 2 mM DTT, 60 nM RNA, 30 C; EMSA conditions not in material. The settings on record: protein: recombinant; tags: vector pET151/D-TOPO; label: 3' fluorescein on R16; 3' overhang 6 nt (UAAAAA) on R22A, other end blunt; 16 bp.

Data set [5] concerns the target T5, Mtr4 WT (Saccharomyces cerevisiae, UniProt P47047).
T5 sequence: T1 sequence with A1030R
The data set is described as above. The settings on record: protein: recombinant; tags: vector pET151/D-TOPO; label: 3' fluorescein on R16; 3' overhang 6 nt (UAAAAA) on R22A, other end blunt; 16 bp.

Data set [6] concerns the target T6, Mtr4 R1030A (Saccharomyces cerevisiae, UniProt P47047 1-1073, R1030A).
T6 sequence: T1 sequence
The description is as above. The following applies: protein: recombinant; tags: vector pET151/D-TOPO; label: 3' fluorescein on R16; 3' overhang 6 nt (UAAAAA) on R22A, other end blunt; 16 bp.

Numbering of substitutions follows the chain as printed. In names and notes the source's numbering stands.

As usually defined, the Kd is a measure of binding affinity in units of concentration.

Turning to “GCGUCUUUACGGUGCUUAAAAA / AGCACCGUAAAGACGC [poly(A) substrate R22A/R16, fluorescein]”, the Kd was more than 10 µM in data set [1], 4.5 µM in data set [2] and 4.8 µM in data set [3].

B1: poly(A) substrate R22A/R16, fluorescein (dsRNA)
RNA 1: GCGUCUUUACGGUGCUUAAAAA
RNA 2: AGCACCGUAAAGACGC
As to B1, the values for the Kd in data set [4], in data set [5] and in data set [6] were 2 ± 0.6 µM, 2.8 ± 0.9 µM and 2.6 ± 1 µM, respectively.

Values taken from paper PMC4267639, “The Mtr4 ratchet helix and arch domain both function to promote RNA unwinding”.
